Laboratory results taken from PMC4448125 (Nature communications, 2015).

Target: GST-tagged human eIF1AX (known as eIF1A), full length (human, UniProt P47813 1-144)
Test: pull-down

Chain of GST-tagged human eIF1AX (known as eIF1A), full length (P47813 whole entry): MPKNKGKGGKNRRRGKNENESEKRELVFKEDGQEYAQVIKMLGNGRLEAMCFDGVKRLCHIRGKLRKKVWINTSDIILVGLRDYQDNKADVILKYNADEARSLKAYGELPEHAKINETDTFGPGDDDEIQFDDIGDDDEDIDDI

B1: His-SMT3-tagged MID(432 ~ 575aa) of human Ago2 (domain or fragment)
chain: not shown
B1: binds.
